In paper PMC10445101, “A neutralizable dimeric anti-thrombin aptamer with potent anticoagulant activity in mice”:

Key:
[1] = target: T1, alpha-thrombin (human) (Homo sapiens, UniProt P00734;P00734 315-363;364-622); assay: SPR; SPR (Biacore X100, CM5, single-cycle kinetics, 1:1 fit): PBS pH 7.4, 0.05% (v/v) Tween 20; aptamers annealed in PBS (95 to 25 C); 1 M NaCl regeneration; assay t
[2] = target: T2, alpha-thrombin (mouse) (Mus musculus, UniProt P19221;P19221 312-360;361-618); assay: SPR; SPR (Biacore X100, CM5, single-cycle kinetics, 1:1 fit): PBS pH 7.4, 0.05% (v/v) Tween 20; aptamers annealed in PBS (95 to 25 C); 1 M NaCl regeneration; assay temperature not stated; conditions: protein: commercial, copies: 1;1
[3] = target: T1, alpha-thrombin (human); assay: SPR; 1:1 approximation; SPR (Biacore X100, CM5, single-cycle kinetics, 1:1 fit): PBS pH 7.4, 0.05% (v/v) Tween 20; aptamers annealed in PBS (95 to 25 C); 1 M NaCl regeneration; assay t
[4] = target: T2, alpha-thrombin (mouse); assay: SPR; 1:1 approximation; SPR (Biacore X100, CM5, single-cycle kinetics, 1:1 fit): PBS pH 7.4, 0.05% (v/v) Tween 20; aptamers annealed in PBS (95 to 25 C); 1 M NaCl regeneration; assay temperature not stated; conditions: protein: commercial; copies: 1;1; pseudo-circular, 17 bp duplex linker

B1: Pse08-08 (M08s-ds17-M08s) (structured_DNA)
DNA: GTCACTAGAGGTCAGATGATGGGGATGGGGGGTTGGAGGAATGGATGACCTCTAGTGACTGATTTACGAGGTCAGATGATGGGGATGGGGGGTTGGAGGAATGGATGACCTCGTAAATCA
In the case of B1, the Kd [1] is reported as 0.4 nM and the Kd ([2]; pseudo-circular, 17 bp duplex linker) is reported as 4.2 nM.

In the case of AGTCCGTGGTAGGGCAGGTTGGGGTGACT (structured_DNA) [TBA29 (HD22)], the Kd [1] is reported as 36.9 nM and the Kd [2] is reported as 22 nM.

With AGGTCAGATGATGGGGATGGGGGGTTGGAGGAATGGATGACCT (structured_DNA) [M08s-1 (M08s)] the Kd [1] was 47.2 nM and the Kd ([2]; predicted G4 with stem) was 495 nM.

B2: Pse08-29 (M08s-ds17-TBA29) (structured_DNA)
DNA: GTCACTAGAGGTCAGATGATGGGGATGGGGGGTTGGAGGAATGGATGACCTCTAGTGACTGATTTACGAGTCCGTGGTAGGGCAGGTTGGGGTGACTCGTAAATCA
With B2 the Kd [3] was 2.6 nM and the Kd [4] was 6.3 nM.
